Results as given in the nanobody polyreactivity screen of Harvey et al. (2022).

Assay: yeast display, Sf9 membrane polyspecificity reagent, FACS + sequencing; frameworks hold sequencing errors
Procedure, shortened: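 Sorting gates, low and high (top ~1%), were placed on anti-HA fluorescence to track expression and on streptavidin fluorescence to track reagent binding. A clone's polyreactivity label is taken from the gate it came out of. The reagent was 10% biotinylated, detergent-solubilized Sf9 membrane, applied for 1 hour at 4 °C to galactose-induced yeast display cells.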

| Sequence | polyreactivity (PSR sort gate) |
| --- | --- |
| QVQLVESGGGLDQAGGSLRLSCAASGSIFRYYVMGWYRQAPGKERELVAAISWSGGTTYYADSVKGRFTISRDNAKNTVYLQMNSLKPEDTAVYYCAAKGPLGYYHATDYHDYWGQGTQVTVSS | high polyreactivity |
| QVQLVESGGGLVQAGGSLRLSCAASGSIFYRNAMGWYRQAPGKERELVAAISSRGTRTYYADSVKGRFTISRDNAKNTVYLQMNSLKPEDTAVYYCAAADYRFYNGPYSRRWLYGYWGQGTQVTVSS | high polyreactivity |
| QVQLVESGGGLVQAGGSLRLSCAASGSTFPLYAMGWYRQAPGKDRELVAAITWSGANTYYADSVKGRFTISRDNAKNTVSLQMNSLKPEDTAVYYCAAGSYAGFAVIGYYYWGQGTQVTVSS | low polyreactivity |
| QVQLVESGGGLVQAGGSLRLSCAASGRIFTIYAMGWYRQAPGKERELVATISSNVGSTYYADSVKGRFTISRDNAKNTVYLQMNSLKPEDTAVYYCAATRRAGFTTAKFDYWGQGTQVTVSS | high polyreactivity |
| QVQLVDSGGGLVQAGGSLRLSCAASGRTFYTYAMGWYRVAPGKEWELVAAITGGGSTTYADSVKGRFTISRDNAKNTVYLQMNSLKPEDTEVYYCAALIYGPERVVDEYDYWGQGTQVTVSS | low polyreactivity |
| QVQLVESGGGLVQAGGSLRLSCAASGRIFKRYAMGWYRQAPGKERELVAAISKSGGSTYYADSVKGRFTISRDNAKNTVYLQMNSLKPEDTAVYYCNADPVRSGLDYWGQGTQVTVSS | high polyreactivity |
| QVQLVESGGGLVQAGGSLRLSCAASGFTFRYYAMGWYRQAPGKERELVAAITSGDSTYYADSVKGRFTISRDNAKNTVYLQMNSLKPEDTAVYYCNKDRRPTADFGYWGQGTQVTVSS | high polyreactivity |
| QVQLVESGGGLVQAGGSLRLRCAASGRIFRGYAMGWYRQAPGKERELVAAISWSGGSSTYADSVKGRFTISLDNAKNTVYLQMNSLKPEDTAVYDCNRVSRGRGRLTVDYQAEGYDSWGQGTQVTVSS | high polyreactivity |
| QVQLVESGGGLVQAGGSLRLSCAASGLTFDWYAMGWYRQAPGKERELVAAISWNGVSTDYADSVKGRFTISRDNAKYTVYLQMNRLKPEDTAVYYCAADPPWYLYVGFDYWGQGTQVNVSS | high polyreactivity |
| QVQLEESGGGLVQAGGSLRLSCAASGRIIRINPMGLYRQAPGKERELVAAITRGGTTYADSVKGRFTFSRDNAKNTVYLQMNSLKPEDTAVYYCNARTGRSPTGFLYWGQGTQVTVSS | high polyreactivity |
| QVQLVESGGGLVQAGGSLRLSCAASGFTLFANVMGWYRQAPGKERELVAAISWRSGNTYYADSVKGRFTISRDNAKNTVYLQMNSLKPEDTAVYYCAADTTGDQHSWGTSGIIEGDYWGQGTQVTVSS | low polyreactivity |
| QVQLEESGGRLVQAGGSLRLSCAASGFTFRYYAMGWYRQAPGKERELVAAITSGGSTNYADSVKGRFTISRDNAKNTVYLQMNSLKPEDTAVYYCKKVPWGSRRMDYWGQGTQVTVSS | high polyreactivity |
| QVQLVESGGGLVQAGGSLRLSCAATGRIFIDNTMGWYRQAPGKERELVAAISWSGGSTYYADSVKGRFTISRDNAKNTVYLQMNCLKPEDTAVYYCAARRLRSNGRTWAVTYDYWGQGTQVTVSS | low polyreactivity |
| QFQLVESGGGLVQAGGSLRLSCAASGFIFTRYVMGWYRQAPGKERELVAAINWSGDSTYYADSVKGRFTISRDYAKNTVYLQLNSLKPEDTAVYYCNADYGWVDTYTNYDYWGQGTQVTVSS | low polyreactivity |
| QVQLVDSGGGLVQAGGSLRLSCAASGRTFWYYTMGWYRQAPGKEREFVAAIRGSGTSTYYADSVKARFTISRDNEKNTVYLQMNSLKPEDTAVYYCAAESPVYHLVTYDYWGQGTQVTVSS | high polyreactivity |
| QVQLVESGGGLVQAGGSLRLSCAASGLTFSAYAMGWYRQAPGKERELVAAITSSGGSTYADSVKGRFTISRDNAKNTVYLQMNSLKPEDTAVYYCAARVVRYGYKYYYWGQGTQVTVSS | low polyreactivity |
| QVQLVESGGGLVQAGGSLRLSCAASGIISVRNTMGWYRQAPGKERELVAAISGSGGSTHYADSVKGRFTISRDNAKNTVYLQMNSLKTEDTEVYYCAVRSYGYWHFGYWGQGTQVTVSS | high polyreactivity |
| QVQLVESRGGLVQAGGSLRLSCAASGRTFWYKAMGWYRQAPGKERELVAAISKSAAITYYADSVKGRFTISRDNAKNTVYLQMNSLKPEDTAVYYCNAGVRAVNRKYDYWGQGTQVTVSS | high polyreactivity |
| QVQLVESGGGLVQAGVSLRLSCAASGSIFRIYGMGWYRQAPGKEREFVAAITHSGGSTYYADSVKGRFTISRDNAKNTVYLQMNSLKPEDTAVYYCAAEDYNYWSYDYWGQGTQVTVSS | low polyreactivity |
| QVQLVESGGGLVQAGGSLRLSCAASGFIFTKYTMGWYRQAPGKERELVADITGRGTSTYADSVKGRFTISRDNAKNTVYLQMNSLKPEDTAVYYCAAVGWFADFLFSDINGYYWGQGTQVTVSS | low polyreactivity |
| QVQRVESGGGLVQAGGSLRLSCAASGIIFGSYAMGGYRQAPGKERELVAAITSIGTRTYYADSVKGRFTISRDNAKNTVYLQMNSLKPEDTAVYYCNAPRFWSRHGLRDYWGQGTQVTVSS | high polyreactivity |
| QVLLQESGGGLVQAGGSLRLSCAASGNIFSAGGMGWYRQAPVNERELVAGIGTGTSTNYADSVKGRFTISRDNAKNTVYLQMTSLKPEVTAVYYCAAAYYSGLSHWYWGQGTQVTVSS | low polyreactivity |

| Sequence | polyreactivity (PSR sort gate) |
| --- | --- |
| QVQLVESGGGLVQAGGSLRLSCAASGRISGLYAMGWYRQAPGKERELVAAITTSADRTYYADSVKGRFTISRDNAKNTVYLQMNSLKPEDTAVYYCAADSSRPRMYYWGQGTQVTVSS | low polyreactivity |
| QVQLVESGGGLVQAGGSLRLSCAASGSIYVGNDMGWYSQAPGKESEFVATMSWAGGSTDYADSVKGRFTISRDNAKNTVYLQMNSQKPEDTAVYYCAKTPYSRYRYGGYTYRTFDYWGQGTQVTVSS | low polyreactivity |
| QVQLVESGGGLVQAGGSLRLSCAASGRTFRVYAMGWYRQAPGKERELVATITSSGGSTYYADSVKGRLTISRDNAMNTVDLQMNSLKPEDTAGYYCNVSVYYKYVSSYYYWGQGTQVTVSS | low polyreactivity |
| QVQLVESGGGLVQAGGSLRLSCAASGITFSRNAMGWYRQAPGKERELVATITSGGSTNYADSVKGRFTISRDNAQNTVYLQMNSLKPEDTAVYYCNAVWNTFISGRSYDYWGQGTQVTVSS | low polyreactivity |
| QVQLVESGGGLVQAGGSLRLSCAASGLTLGRYAKGWYRQAPGKARELVAVITGGGSTNYADSVKGRFTISRDNAKNTVYLQMNTLKTEDTAVYFCAVRGGIFQTLSTWYRYYYWGQGTQVTVSS | high polyreactivity |
| QVQLVESGGGLVQAGGSLRLSCAASGSTFNGNVMGWYRQAPGKDRELVAGISKSGGTTYYADSVKGRFTISRDNAKNTVYLQMNSLKPEDTAVYYCDARGRVRYYPQYDYWGQGTQVTVSS | high polyreactivity |
| QVQLVESGGGLVQAGGSLRVSCAASGSIFYTYVMGWYREAPGKERELVAAISGTGGRTYYADSVKGRFTISRDNAKNTVYLQMNSLKPEDTAVYYCAALYNRVNGHYYWGQGTQVTVSS | high polyreactivity |
| QVQLVESVGGLVQAGGSLRIICAASGITLAWYSMGWYRKAPGKERELVASISSSGSTNYADSVKGRFTISRDNAKNTVYLQMNSLIPEETAVYYCNKDYLLLHYYIYVIEGDYWGQGTQVTVSS | low polyreactivity |
| QVQLVESGGGLDQAGGSLRLSCAASGITFKSNAMGWYRQAPGKESELVAAISRRASSTYYADSVKGRFTISRDNAKHTVYLQMNSLKPEDTAVYYCNAVLPVYRTNMDYWGQGTQVTVSS | high polyreactivity |
| QVQLVESGGGLVQAGGSLRLSCAASGIIFVINAMGWYRQAPGKERELVATITGSGTTNYADSVKGRFTISRDNAKNTVYLQMNSLKPEDTAVYYCARDDTEYARTGAYDYWGQGTQVTVSS | low polyreactivity |
| QVQLVESGGGLVQAGGSLRLSCAASGSIFSVYSMGWYRQAPGKERELVADITRSGARTYYADSVKGRFTISRDNAKNTVYFPMNSLKPEDTAVYYCAADDPCYDQVEYWGQGTQVTVSS | high polyreactivity |
| QVQLVESGGGLVQAGGSLRLSCAASGFTCTSNAMGWYRQAPGKERELVAAITFTGGRTYYADSVKGRFTISRDNAKNTVYLQMNSLKPEDTAVYYCNRVTAYYPTKFDYWGQGTQVTVSS | high polyreactivity |
| QVQLVESGGGIVQAGGSLRLSCAASGSTFYRYAMGWYRQAPGKERELVATITNSGGSTYYADSVKGRFTISRDNAKNTVYLQMNSLKPEDTAVYYCARVRSRNTGYYYWGQGTQVTVSS | high polyreactivity |
| QVQLVESGGGLVQAGGSLRLSCAASGSIFEFNAMGWYRQAHGKERELVSAITWSGTSTYYADSVKGRFTISRDNAKNTVYLQMKSLKPEDTAVYYCGADSTDYFYWGQGTQVTVSS | high polyreactivity |
| QVQLVESGGGLVQAGGSLRLSCAASGRIFVRYAMGWYRQAPGKERELVAAITTTGDSTYADSVKGRFTISRDNAKNTVYLQMNSLKPEDTAVYYCNAAWPESRFLVYHRYDYWGQGTQVTVSS | low polyreactivity |
| QVQLVESGGGLVQAGGSLRLSCAASGRTFEYYAMGWYRQAPGKERDLVAAISTSGGSTYYADSVKGRFTISRDNAKNTVYLQMNSLKPEDTAVYYCNKVQSTANDYWGQGTQVTVSS | low polyreactivity |
| QVQLVESGGGLVQAGGSLRLSCAASGRTFDLNGMGWYRQAPGKERELVAAITRGGSTNYADSVKGRFTISRDNAKNTVYLQMNSLKPEDTAVYYCAADSSFWYYDRYDYWGQGTQVTVSS | low polyreactivity |
| QVQLVESGGGLVQAGGSLRLSCAASGFTFRFYGMGWYRQAPGKERELVAAISSRGTTTYYADSVKGRFTISRDNAKNTVYLQMNSLKPEDTAVYYCNKEYTTYGYDLEYDYWGLGTQVTVSS | low polyreactivity |
| QVQLVESGGGLVQAGGSLRLSCAASGRIYCGYTMGWYRPAPGKERELDATITGNGAITRYADSVKGRFTISRDNAKYTVYLQMTSLKPEDTAVYYCAADSGREPKGPFRLTYWGQGTQVTVSS | high polyreactivity |
| QVQLVESGGGLVQAGGSLRLSCAASGNIYNNYDMGWYRPAPGKERDLVARIDSGGSTNYADSVKGRFTISRDNAKNTVYLQMNCLKPEDTAVYYCAADFLSHWLLEMDYWGQGTQVTVSS | low polyreactivity |
| QVQLVESGGGLVQAGGSLRISCAASGSTFQGNAMGWSRHAPGKERELVAAISRSGGSTYADSVKGRFTISRDNAKNTVYLQMNSLKPEDTAVYYCSADAPFDRPYNYWGQGTQVTVSS | low polyreactivity |
